Legend:
DIM2 = experiment: In vitro DNA methylation assay: effect of HP1 and H3 peptides on DIM2 activity; type: biochemical, Neurospora Crassa; set-up: DNA methylation activity of DIM2 in presence of HP1, WT or W98A: unit not given beside the values; settings: for DNA methylation activity of DIM2 in presence of HP1, WT or W98A: Sup Fig. 1e, (CTA)12/(TAG)12 DNA duplex, 1.0 µM DIM2, 2 µM HP1, 30 °C, 30 min, pH 8.0
Method: In vitro DNA methylation assay was performed in a 20-µL reaction mixture. For the substrate specificity assay, the following DNA duplexes were used as substrates: CG DNA (Upper strand: 5’-[…]-3’), hemimethylated CG DNA (Upper strand: 5’-TAAATTTXGATTAATAAT-3’, X = 5-methylcytosine; Lower strand: 5’-[…] -3’), CHG DNA (Upper strand: 5’-[…]-3’), and CHH DNA (Upper strand: 5’-[…]-3’). The reaction mixture contains 0.25 µM DIM2, 1.0 µM DNA duplex, 1.0 µM synthesized H3K9me3 peptide (residues 1-24 of H3 plus a C-terminal tryptophan), 0.5 µM HP1, and 0.56 µM S-adenosyl-L-[methyl-^3H] methionine with a specific activity of 18 Ci/mmol (PerkinElmer) in buffer containing 50 mM Tris-HCl (pH 8.0), 100 mM NaCl, 0.05% β-mercaptoethanol, 5% glycerol, and 200 µg/mL BSA. For the rest of the DNA methylation assay, each reaction mixture contains 1.0 µM DIM2, […] methionine with a specific activity of 18 Ci/mmol (PerkinElmer) in buffer containing 50 mM Tris-HCl (pH 8.0), 100 mM NaCl, 0.05% β-mercaptoethanol, 5% glycerol, and 200 µg/mL BSA. In addition, 1.0 µM synthesized H3K9me3 or H3K9me0 peptide (residues 1-24 of H3 plus a C-terminal tryptophan) and/or 2 µM HP1 protein was included to evaluate the effect of H3 and HP1 regulation. The reaction mixture was incubated at 30 °C for 30 min, unless indicated otherwise, before being quenched by the addition of 5 µL of 10 mM cold SAM. After the reaction, 8 μL of the mixtures was loaded onto Hybond N nylon membrane (GE Healthcare), which was left to dry out at room temperature. The membrane was subsequently washed with 0.2 M ammonium bicarbonate (pH 8.2) two times (20 min per time), deionized water (20 min) once, and 95% ethanol (5 min) once. After air dried, the membrane carrying each sample was transferred into a vial containing 3 mL scintillation buffer (Fisher). The tritium scintillation was measured and recorded by a Beckman LS6500 counter. Each the reaction was repeated three times.

[1] = tested on: (CTA)12/(TAG)12 36-mer DNA duplex; experiment: In vitro DNA methylation assay of DIM2 (WT or mutant); type: biochemical; set-up: DNA methylation activity: unit not given here; settings: 30 min, pH 8.0
HP1 = experiment: Size-exclusion chromatography of DIM2-HP1 complex; type: binding, Neurospora Crassa; settings: 1.0 µM DIM2 and/or 2.5 µM HP1, Superdex 200 increase 10/300 GL, pH 7.5
Method: For size-exclusion chromatography analysis, 400 µL of the sample mixture containing 1.0 µM DIM2 and/or 2.5 µM HP1 was loaded onto Superdex 200 increase 10/300 GL column (GE Healthcare) and eluted at a flow rate of 0.5 mL/min, in the buffer containing 20 mM Tris-HCl (pH 7.5), 100 mM NaCl, 5% glycerol, and 5 mM DTT. The proteins in each fraction were then visualized by SDS-PAGE.

B1: HP1W98A: HP1 with H3K9me3-cage mutation W98A (protein)
chain: MPYDPSALSDEEAASSVELDTRSATSSSKKQSRDKKSVKYTIPEPEDFEDEEQNGDGADEGGEDDEEGDEEEEDVYVVEKILDHMLNDDNEPLFLVKAEGYEKKSDQTWEPEDTLIEGASERLKEYFTKIGGREKIFEASAAAQKIKKRGRPSSNSGTPQASSNKRSRKNGDHPLNSEEPQTAKNAAWKPPAGSWEEHIAQLDACEDEDTHKLMVYLTWKNGHKTQHTTDVIYKRCPQKMLQFYERHVRIIKRDPDSEDREGSVSQ
modifications: left off: His6, N-terminal, cleaved | MBP, N-terminal, cleaved
notes: HP1 with H3K9me3-cage mutation W98A
Q: What does the source list for B1?
A: DNA methylation activity of DIM2 in presence of HP1, WT or W98A (DIM2; replicate 1): 45.423; DNA methylation activity of DIM2 in presence of HP1, WT or W98A (DIM2; replicate 2): 47.119; DNA methylation activity of DIM2 in presence of HP1, WT or W98A (DIM2; replicate 3): 45.142; increase of activity-stimulation effect of HP1 on DIM2 (DIM2; W98A vs WT HP1): ~ 2 fold

B2: DIM2L134A/L139A: DIM2 L134A/L139A double mutation (protein)
chain: MDSPDRSHGGMFIDVPAETMGFQEDYLDMFASVLSQGLAKEGDYAHHQPLPAGKEECLEPIAVATTITPSPDDPQLQLQLELEQQFQTESGLNGVDPAPAPESEDEADLPDGFSDESPDDDFVVQRSKHITVDAPVSTAINPRSTFQRIDENDNLVPPPQSTPERVAVEDLLKAAKAAGKNKEDYIEFELHDFNFYVNYAYHPQEMRPIQLVATKVLHDKYYFDGVLKYGNTKHYVTGMQVLELPVGNYGASLHSVKGQIWVRSKHNAKKEIYYLLKKPAFEYQRYYQPFLWIADLGKHVVDYCTRMVERKREVTLGCFKSDFIQWASKAHGKSKAFQNWRAQHPSDDFRTSVAANIGYIWKEINGVAGAKRAAGDQLFRELMIVKPGQYFRQEVPPGPVVTEGDRTVAATIVTPYIKECFGHMILGKVLRLAGEDAEKEKEVKLAKRLKIENKNATKADTKDDMKNDTATESLPTPLRSLPVQVLEATPIESDIVSIVSSDLPPSENNPPPLTNGSVKPKAKANPKPKPSTQPLHAAHVKYLSQELVNKIKVGDVISTPRDDSSNTDTKWKPTDTDDHRWFGLVQRVHTAKTKSSGRGLNSKSFDVIWFYRPEDTPCCAMKYKWRNELFLSNHCTCQEGHHARVKGNEVLAVHPVDWFGTPESNKGEFFVRQLYESEQRRWITLQKDHLTCYHNQPPKPPTAPYKPGDTVLATLSPSDKFSDPYEVVEYFTQGEKETAFVRLRKLLRRRKVDRQDAPANELVYTEDLVDVRAERIVGKCIMRCFRPDERVPSPYDRGGTGNMFFITHRQDHGRCVPLDTLPPTLRQGFNPLGNLGKPKLRGMDLYCGGGNFGRGLEEGGVVEMRWANDIWDKAIHTYMANTPDPNKTNPFLGSVDDLLRLALEGKFSDNVPRPGEVDFIAAGSPCPGFSLLTQDKKVLNQVKNQSLVASFASFVDFYRPKYGVLENVSGIVQTFVNRKQDVLSQLFCALVGMGYQAQLILGDAWAHGAPQSRERVFLYFAAPGLPLPDPPLPSHSHYRVKNRNIGFLCNGESYVQRSFIPTAFKFVSAGEGTADLPKIGDGKPDACVRFPDHRLASGITPYIRAQYACIPTHPYGMNFIKAWNNGNGVMSKSDRDLFPSEGKTRTSDASVGWKRLNPKTLFPTVTTTSNPSDARMGPGLHWDEDRPYTVQEMRRAQGYLDEEVLVGRTTDQWKLVGNSVSRHMALAIGLKFREAWLGTLYD
modifications: left off: His6, N-terminal, cleaved | MBP, N-terminal, cleaved
notes: DIM2 L134A/L139A double mutation
Q: Which results are given for B2?
A: DNA methylation activity ([1]; Fig. 2g, in the presence of HP1 (2 µM) and H3_1-24K9me3 peptide (1.0 µM), 1.0 µM DIM2, 30 °C, replicate 1): 1.016; DNA methylation activity ([1]; Fig. 2g, in the presence of HP1 (2 µM) and H3_1-24K9me3 peptide (1.0 µM), 1.0 µM DIM2, 30 °C, replicate 2): 1.136; DNA methylation activity ([1]; Fig. 2g, in the presence of HP1 (2 µM) and H3_1-24K9me3 peptide (1.0 µM), 1.0 µM DIM2, 30 °C, replicate 3): 1.188; DIM2-HP1 complex formation (in words) (HP1): partial disruption of the DIM2-HP1 complex

B3: DIM2N1050A: DIM2 with mutation in the bridging loop (N1050A) (protein)
chain: MDSPDRSHGGMFIDVPAETMGFQEDYLDMFASVLSQGLAKEGDYAHHQPLPAGKEECLEPIAVATTITPSPDDPQLQLQLELEQQFQTESGLNGVDPAPAPESEDEADLPDGFSDESPDDDFVVQRSKHITVDLPVSTLINPRSTFQRIDENDNLVPPPQSTPERVAVEDLLKAAKAAGKNKEDYIEFELHDFNFYVNYAYHPQEMRPIQLVATKVLHDKYYFDGVLKYGNTKHYVTGMQVLELPVGNYGASLHSVKGQIWVRSKHNAKKEIYYLLKKPAFEYQRYYQPFLWIADLGKHVVDYCTRMVERKREVTLGCFKSDFIQWASKAHGKSKAFQNWRAQHPSDDFRTSVAANIGYIWKEINGVAGAKRAAGDQLFRELMIVKPGQYFRQEVPPGPVVTEGDRTVAATIVTPYIKECFGHMILGKVLRLAGEDAEKEKEVKLAKRLKIENKNATKADTKDDMKNDTATESLPTPLRSLPVQVLEATPIESDIVSIVSSDLPPSENNPPPLTNGSVKPKAKANPKPKPSTQPLHAAHVKYLSQELVNKIKVGDVISTPRDDSSNTDTKWKPTDTDDHRWFGLVQRVHTAKTKSSGRGLNSKSFDVIWFYRPEDTPCCAMKYKWRNELFLSNHCTCQEGHHARVKGNEVLAVHPVDWFGTPESNKGEFFVRQLYESEQRRWITLQKDHLTCYHNQPPKPPTAPYKPGDTVLATLSPSDKFSDPYEVVEYFTQGEKETAFVRLRKLLRRRKVDRQDAPANELVYTEDLVDVRAERIVGKCIMRCFRPDERVPSPYDRGGTGNMFFITHRQDHGRCVPLDTLPPTLRQGFNPLGNLGKPKLRGMDLYCGGGNFGRGLEEGGVVEMRWANDIWDKAIHTYMANTPDPNKTNPFLGSVDDLLRLALEGKFSDNVPRPGEVDFIAAGSPCPGFSLLTQDKKVLNQVKNQSLVASFASFVDFYRPKYGVLENVSGIVQTFVNRKQDVLSQLFCALVGMGYQAQLILGDAWAHGAPQSRERVFLYFAAPGLPLPDPPLPSHSHYRVKNRNIGFLCAGESYVQRSFIPTAFKFVSAGEGTADLPKIGDGKPDACVRFPDHRLASGITPYIRAQYACIPTHPYGMNFIKAWNNGNGVMSKSDRDLFPSEGKTRTSDASVGWKRLNPKTLFPTVTTTSNPSDARMGPGLHWDEDRPYTVQEMRRAQGYLDEEVLVGRTTDQWKLVGNSVSRHMALAIGLKFREAWLGTLYD
modifications: left off: His6, N-terminal, cleaved | MBP, N-terminal, cleaved
Q: With B3 as the molecule, how does the “DNA methylation activity of DIM2 (in words)” value ([1]; 1.0 µM DIM2, 30 °C) read?
A: The value was “marked decrease of the DNA methylation activity”.

Q: What about the DNA methylation activity ([1]; Fig. 6d, H3_1-24K9me3 binding-associated mutants, 1.0 µM DIM2, 1.0 µM DNA duplex, 30 °C, replicate 1) of the same molecule?
A: The DNA methylation activity was 5.118.

Q: What about the DNA methylation activity ([1]; Fig. 6d, H3_1-24K9me3 binding-associated mutants, 1.0 µM DIM2, 1.0 µM DNA duplex, 30 °C, replicate 2) of the same molecule?
A: Its DNA methylation activity is 5.385.

Q: And the DNA methylation activity ([1]; Fig. 6d, H3_1-24K9me3 binding-associated mutants, 1.0 µM DIM2, 1.0 µM DNA duplex, 30 °C, replicate 3)?
A: The DNA methylation activity was 5.072.

From paper PMC11315935, “Multi-layered heterochromatin interaction as a switch for DIM2-mediated DNA methylation” (Nature Communications, 2024)
